Data reported in PMC11551737, “Structural and functional insights into the interaction between the bacteriophage T4 DNA processing proteins gp32 and Dda” (Nucleic Acids Research, 2024).

Tests used:
[1] = biological target: T1, bacteriophage T4 helicase Dda, wild type (bacteriophage T4) (UniProt P32270)
T1 sequence: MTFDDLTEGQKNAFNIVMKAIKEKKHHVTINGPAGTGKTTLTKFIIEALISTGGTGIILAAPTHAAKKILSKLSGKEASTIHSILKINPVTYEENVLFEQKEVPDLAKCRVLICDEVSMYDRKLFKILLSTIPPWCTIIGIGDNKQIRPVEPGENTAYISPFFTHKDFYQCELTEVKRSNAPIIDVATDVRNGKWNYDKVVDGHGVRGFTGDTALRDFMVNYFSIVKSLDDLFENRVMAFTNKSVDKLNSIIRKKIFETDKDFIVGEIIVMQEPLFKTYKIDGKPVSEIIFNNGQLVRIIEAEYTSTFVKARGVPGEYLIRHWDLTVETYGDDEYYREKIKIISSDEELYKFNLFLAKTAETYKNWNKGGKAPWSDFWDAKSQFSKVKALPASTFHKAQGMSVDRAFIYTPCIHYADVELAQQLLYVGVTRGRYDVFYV

wild-type Dda = experiment: Dda-dependent DNA unwinding assay with gp32 variants (fluorescein-quenched replication fork substrate, no annealing trap); assay type: biochemical, bacteriophage T4; conditions: 375 nM gp32 variant, 25 nM wild-type Dda, 25 nM substrate, 2.5 mM ATP, triplicate experiments; for Rate constant of product formation (single exponential fit): 5 mM Mg(OAc)2, pH 7.5, room temperature, fluorescein fluorescence; for Amplitude of the product formation curve (fluorescence): higher amplitude = more effective prevention of reannealing
Protocol: A partial duplex substrate mimicking a replication fork was prepared by mixing equimolar concentrations of the following oligonucleotides: loading strand - […]/36-FAM/, displaced strand - […], and leading strand - […] in 10 mM HEPES/1 mM EDTA. The sample was heated to 95°C for 5 min, followed by slowly cooling to room temperature. All concentrations are final, after mixing. ATP (2.5 mM), Mg(OAc)2 (5 mM) and gp32 (375 nM) in assay buffer (25 mM HEPES, pH 7.5, 10 mM KOAc, 0.1 mM EDTA, 2 mM β-mercaptoethanol, 1 mg/ml bovine serum albumin and 4 mM phosphoenol pyruvate) were mixed and added to wells in one row of a black 96-well plate. The reactions were initiated by adding 25 nM substrate, 25 nM wild-type Dda and 5 U/ml pyruvate kinase/lactate dehydrogenase in assay buffer with a multichannel pipette to the entire row simultaneously. Fluorescein fluorescence was measured 8 times per minute in a VICTOR Nivo Multimode Plate Reader (Perkin Elmer) at room temperature with excitation through a 480/30 nm bandpass filter and emission measured after a 530/30 nm bandpass filter.

[2] = biological target: T2, bacteriophage T4 helicase Dda, wild type (bacteriophage T4, UniProt P32270 1-439); experiment: SPR; SPR analysis 2: Biacore T200, 25°C; wild-type Dda/dT20 immobilised on an NTA chip as in SPR analysis 1; peptides injected, 2-fold dilution series, 100 μM to 0.78 μM; steady-state analysis; conditions: both partners purified
T2 construct: Dda, SF1B helicase of bacteriophage T4, wild type; also called wild-type Dda
T2 sequence (looked up): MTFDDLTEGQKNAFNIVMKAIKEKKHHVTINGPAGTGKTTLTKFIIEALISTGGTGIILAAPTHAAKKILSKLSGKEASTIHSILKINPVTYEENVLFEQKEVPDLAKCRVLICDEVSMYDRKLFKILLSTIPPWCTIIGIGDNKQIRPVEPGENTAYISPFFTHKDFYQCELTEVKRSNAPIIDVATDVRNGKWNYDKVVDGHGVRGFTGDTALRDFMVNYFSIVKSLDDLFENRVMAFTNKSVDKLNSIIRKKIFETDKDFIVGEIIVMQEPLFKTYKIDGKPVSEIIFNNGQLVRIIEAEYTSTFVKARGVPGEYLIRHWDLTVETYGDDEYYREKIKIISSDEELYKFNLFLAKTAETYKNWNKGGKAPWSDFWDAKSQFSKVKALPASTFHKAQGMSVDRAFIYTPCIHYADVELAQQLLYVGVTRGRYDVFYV

[3] = biological target: T3, bacteriophage T4 helicase Dda, wild type (bacteriophage T4, UniProt P32270 1-439); experiment: SPR; wild-type Dda bound to dT20
T3 chain: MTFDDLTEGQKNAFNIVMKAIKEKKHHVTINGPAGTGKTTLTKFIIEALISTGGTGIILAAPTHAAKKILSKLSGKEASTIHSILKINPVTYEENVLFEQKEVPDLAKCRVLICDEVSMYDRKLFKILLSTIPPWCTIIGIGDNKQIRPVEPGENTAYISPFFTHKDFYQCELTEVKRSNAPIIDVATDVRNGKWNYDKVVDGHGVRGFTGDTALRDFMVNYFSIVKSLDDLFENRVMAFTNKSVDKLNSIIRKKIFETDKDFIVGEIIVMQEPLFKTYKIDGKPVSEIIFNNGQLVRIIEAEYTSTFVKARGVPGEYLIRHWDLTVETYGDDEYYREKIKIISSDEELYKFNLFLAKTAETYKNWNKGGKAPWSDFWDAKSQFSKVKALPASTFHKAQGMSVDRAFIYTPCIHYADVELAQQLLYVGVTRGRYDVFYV

B1: full-length gp32 variant A255E/L262A (natural protein)
chain: MFKRKSTAELAAQMAKLNGNKGFSSEDKGEWKLKLDNAGNGQAVIRFLPSKNDEQAPFAILVNHGFKKNGKWYIETCSSTHGDYDSCPVCQYISKNDLYNTDNKEYSLVKRKTSYWANILVVKDPAAPENEGKVFKYRFGKKIWDKINAMIAVDVEMGETPVDVTCPWEGANFVLKVKQVSGFSNYDESKFLNQSAIPNIDDESFQKELFEQMVDLSEMTSKDKFKSFEELNTKFGQVMGTAVMGGAAATAAKKEDKVADDADAFNVDDFNTKTEDDFMSSSSGSSSSADDTDLDDLLNDL
[1]
  amplitude of the product formation curve (fluorescein fluorescence) in the Dda-dependent DNA unwinding assay without annealing trap; 375 nM gp32, 25 nM wild-type Dda, 25 nM substrate: 130000

B2: gp32 V258E/F265A: full-length gp32 variant V258E/F265A designed to reduce gp32–Dda interactions (protein)
chain: MFKRKSTAELAAQMAKLNGNKGFSSEDKGEWKLKLDNAGNGQAVIRFLPSKNDEQAPFAILVNHGFKKNGKWYIETCSSTHGDYDSCPVCQYISKNDLYNTDNKEYSLVKRKTSYWANILVVKDPAAPENEGKVFKYRFGKKIWDKINAMIAVDVEMGETPVDVTCPWEGANFVLKVKQVSGFSNYDESKFLNQSAIPNIDDESFQKELFEQMVDLSEMTSKDKFKSFEELNTKFGQVMGTAVMGGAAATAAKKADKEADDLDAANVDDFNTKTEDDFMSSSSGSSSSADDTDLDDLLNDL
modifications: left off: 6xHis, N-terminal, state not stated
wild-type Dda
  Rate constant of product formation (single exponential fit): 0.026 s⁻¹
  Amplitude of the product formation curve (fluorescence): 87 000

B3: full-length gp32 variant V258E/F265A (natural protein)
chain: MFKRKSTAELAAQMAKLNGNKGFSSEDKGEWKLKLDNAGNGQAVIRFLPSKNDEQAPFAILVNHGFKKNGKWYIETCSSTHGDYDSCPVCQYISKNDLYNTDNKEYSLVKRKTSYWANILVVKDPAAPENEGKVFKYRFGKKIWDKINAMIAVDVEMGETPVDVTCPWEGANFVLKVKQVSGFSNYDESKFLNQSAIPNIDDESFQKELFEQMVDLSEMTSKDKFKSFEELNTKFGQVMGTAVMGGAAATAAKKADKEADDLDAANVDDFNTKTEDDFMSSSSGSSSSADDTDLDDLLNDL
[1]
  amplitude of the product formation curve (fluorescein fluorescence) in the Dda-dependent DNA unwinding assay without annealing trap; 375 nM gp32, 25 nM wild-type Dda, 25 nM substrate: 87000

B4: gp32 A255E/L262A: full-length gp32 variant A255E/L262A designed to reduce gp32–Dda interactions (protein)
chain: MFKRKSTAELAAQMAKLNGNKGFSSEDKGEWKLKLDNAGNGQAVIRFLPSKNDEQAPFAILVNHGFKKNGKWYIETCSSTHGDYDSCPVCQYISKNDLYNTDNKEYSLVKRKTSYWANILVVKDPAAPENEGKVFKYRFGKKIWDKINAMIAVDVEMGETPVDVTCPWEGANFVLKVKQVSGFSNYDESKFLNQSAIPNIDDESFQKELFEQMVDLSEMTSKDKFKSFEELNTKFGQVMGTAVMGGAAATAAKKEDKVADDADAFNVDDFNTKTEDDFMSSSSGSSSSADDTDLDDLLNDL
modifications: left off: 6xHis, N-terminal, state not stated
wild-type Dda
  Rate constant of product formation (single exponential fit): 0.023 s⁻¹
  Amplitude of the product formation curve (fluorescence): 130 000

B5: gp32 C-terminus peptide encompassing residues 248–270 (peptide)
peptide: AATAAKKADKVADDLDAFNVDDF
notes: also called gp32 C-terminal peptide; source: synthetic peptide
[2]
  binding result: binds

B6: A255E/L262A mutant of gp32 peptide 248–270 (peptide, UniProt P03695 248-270, looked up)
peptide: AATAAKKEDKVADDADAFNVDDF
notes: probably a synthetic peptide like those of SPR analysis 1; also called mutant peptide A255E/L262A
[3]
  Kd: 504 µM
[2]
  fold less binding than the wild-type peptide 248–270: ~10 fold

B7: V258E/F265A mutant of gp32 peptide 248–270 (peptide, UniProt P03695 248-270, looked up)
peptide: AATAAKKADKEADDLDAANVDDF
notes: probably a synthetic peptide like those of SPR analysis 1; also called mutant peptide V258E/F265A
[3]
  Kd: 492 µM
[2]
  fold less binding than the wild-type peptide 248–270: ~10 fold
